The results in this text go back to PMC6123492, “Structural and biochemical insights into small RNA 3′ end trimming by Arabidopsis SDN1”.

Data set [1] concerns the target T1, SDN1 wild type (Arabidopsis thaliana, UniProt A3KPE8 2-409).
T1 sequence: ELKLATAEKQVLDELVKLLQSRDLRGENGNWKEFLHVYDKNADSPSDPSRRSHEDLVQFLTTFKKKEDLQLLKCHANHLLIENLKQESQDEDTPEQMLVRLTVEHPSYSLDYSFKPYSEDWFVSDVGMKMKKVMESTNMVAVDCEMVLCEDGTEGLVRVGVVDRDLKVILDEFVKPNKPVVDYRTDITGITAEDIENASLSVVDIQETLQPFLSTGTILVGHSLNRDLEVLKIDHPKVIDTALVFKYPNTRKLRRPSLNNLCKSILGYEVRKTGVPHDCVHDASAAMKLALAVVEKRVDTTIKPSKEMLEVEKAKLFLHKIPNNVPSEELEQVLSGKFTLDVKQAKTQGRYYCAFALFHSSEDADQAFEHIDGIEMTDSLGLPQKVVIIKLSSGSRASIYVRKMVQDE
Briefly: UV crosslinking (5-iodoU, 312 nm); EMSA: 50 mM Tris pH 8.0, 100 mM NaCl, 1 mM DTT, no Mg2+, 2 nM RNA, on ice 30 min, 8% native PAGE in 0.5x TBE; NMR: 50 mM Na2HPO4 pH 7.4, 100 mM NaCl, 10% D2O. To be noted: protein: recombinant, tags: His-SUMO tag removed.

A further data set deals with T2, SDN1 RRM (NMR) (Arabidopsis thaliana, UniProt A3KPE8 305-409).
T2 sequence: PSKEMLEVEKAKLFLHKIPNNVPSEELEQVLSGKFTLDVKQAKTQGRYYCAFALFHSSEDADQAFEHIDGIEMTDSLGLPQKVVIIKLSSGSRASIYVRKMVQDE
Put plainly: NMR titration; EMSA: 50 mM Tris pH 8.0, 100 mM NaCl, 1 mM DTT, no Mg2+, 2 nM RNA, on ice 30 min, 8% native PAGE in 0.5x TBE; NMR: 50 mM Na2HPO4 pH 7.4, 100 mM NaCl, 10% D2O. To be noted: protein: recombinant; tags: His-SUMO tag removed; 15N-labeled; single strand.

Data set [2] has as its target T1, SDN1 wild type. Briefly: crystal structure; 2 Mg2+; 9 of 10 nt seen, 2.8 Å; EMSA: 50 mM Tris pH 8.0, 100 mM NaCl, 1 mM DTT, no Mg2+, 2 nM RNA, on ice 30 min, 8% native PAGE in 0.5x TBE; NMR: 50 mM Na2HPO4 pH 7.4, 100 mM NaCl, 10% D2O. To be noted: protein: recombinant; tags: His-SUMO tag removed; single strand.
Data set [3] concerns the target T1, SDN1 wild type. Put plainly: EMSA; no Mg2+; Kd,app in µM range, value only in figure; EMSA: 50 mM Tris pH 8.0, 100 mM NaCl, 1 mM DTT, no Mg2+, 2 nM RNA, on ice 30 min, 8% native PAGE in 0.5x TBE; NMR: 50 mM Na2HPO4 pH 7.4, 100 mM NaCl, 10% D2O. To be noted: protein: recombinant; tags: His-SUMO tag removed; label: 5' 32P; single strand.
The next data set addresses T3, SDN1 ΔC (Arabidopsis thaliana, UniProt A3KPE8 2-302).
T3 sequence: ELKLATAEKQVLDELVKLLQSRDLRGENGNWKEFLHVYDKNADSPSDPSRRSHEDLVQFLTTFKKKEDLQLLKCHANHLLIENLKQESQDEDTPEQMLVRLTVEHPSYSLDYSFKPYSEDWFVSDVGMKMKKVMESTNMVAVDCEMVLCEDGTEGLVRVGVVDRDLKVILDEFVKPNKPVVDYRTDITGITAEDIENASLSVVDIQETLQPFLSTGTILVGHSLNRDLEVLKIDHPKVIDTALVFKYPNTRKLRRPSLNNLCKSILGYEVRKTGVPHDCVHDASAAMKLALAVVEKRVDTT
Put plainly: UV crosslinking (5-iodoU, 312 nm); EMSA: 50 mM Tris pH 8.0, 100 mM NaCl, 1 mM DTT, no Mg2+, 2 nM RNA, on ice 30 min, 8% native PAGE in 0.5x TBE; NMR: 50 mM Na2HPO4 pH 7.4, 100 mM NaCl, 10% D2O. To be noted: protein: recombinant, tags: His-SUMO tag removed.

Where [4] appears, read: label: 5' 32P on target strand, unpaired miR166 3' end (T6-type), target 3' overhang 4 nt.

B1: 5'-IUU RNA (ssRNA)
RNA: GAUUCCCUUGAAGCUUGGUCCGGAUUA
modifications: 5-iodoU at 3,4
For B1, in the data set with SDN1 wild type [1] (label: 32P, single strand), the binding result is listed as “binds”.

B2: 10 nt ssRNA (crystal, NMR) (ssRNA)
RNA: AGCCCAUUAG
Regarding B2, the binding result with SDN1 RRM (NMR) and in the data set with SDN1 wild type [2] was “binds” in each case.

B3: M-IUU RNA (ssRNA)
RNA: GAUUCCCUUGAAGCUUGGUCCGGAUUA
modifications: 5-iodoU at 15,16
Take B3: in the data set with SDN1 wild type [1] (label: 32P, single strand), the binding result is recorded as “binds”.

B4: miR166:5'-IUU (dsRNA)
RNA 1: UCGGACCAGGCUUCAUCCCCC
RNA 2: GAUUCCCUUGAAGCUUGGUCCGGAUUA
modifications: 5-iodoU at 3,4 of strand 2
Consider B4, for which the binding result in the data set with SDN1 wild type [1] (setting [4]) was “binds”.

B5: miR173 (22 nt RNA) (ssRNA)
RNA: UUCGCUUGCAGAGAGAAAUCAC
Turning to B5, the binding result in the data set with SDN1 wild type [3] is listed as “binds”.

B6: miR166:3'-IUU (dsRNA)
RNA 1: UCGGACCAGGCUUCAUCCCCC
RNA 2: GAUUCCCUUGAAGCUUGGUCCGGAUUA
modifications: 5-iodoU at 25,26 of strand 2
On to B6, for which the binding result in the data set with SDN1 wild type [1] (setting [4]) and with SDN1 ΔC (setting [4]) was “binds” throughout.

B7: 3'-IUU RNA (ssRNA)
RNA: GAUUCCCUUGAAGCUUGGUCCGGAUUA
modifications: 5-iodoU at 25,26
With B7, the binding result is listed as “binds” in the data set with SDN1 wild type [1] (label: 32P, single strand) and “binds” with SDN1 ΔC (label: 32P, single strand).
